From article doi:10.1101/2025.10.31.685773 (bioRxiv, 2025)

Tests used:
[1] = target: TtCoAT (TT_C1083, CoA transferase from Thermus thermophilus HB27) with C-terminal (His)6-tag (Thermus thermophilus HB27) (UniProt Q72IP9); assay: cryo-EM structure
[2] = target: TtCoAT (TT_C1083, CoA transferase from Thermus thermophilus HB27) with C-terminal (His)6-tag (Thermus thermophilus HB27) (UniProt Q72IP9); assay: cryo-EM structure; remark: listed apart in the source
[3] = target: TtCoAT (TT_C1083, CoA transferase from Thermus thermophilus HB27) with C-terminal (His)6-tag (Thermus thermophilus HB27) (UniProt Q72IP9); assay: SEC
cryo-EM structure = target: the molecule itself; assay: cryo-EM structure

| stoichiometry N [1] | stoichiometry N [2] | stoichiometry N [3] | Molecule | stoichiometry N (cryo-EM structure) |
| --- | --- | --- | --- | --- |
| 2 | 2 | 4 | TtCoAT (TT_C1083, CoA transferase from Thermus thermophilus HB27) with C-terminal (His)6-tag (from UniProt Q72IP9 1-444) (enzyme) | – |
| – | – | – | ADLP (TT_C1082, alanine dehydrogenase-like protein from Thermus thermophilus HB27) with N-terminal Strep-tag (natural protein) MEFGVPKERSGGEIPERRVPLTPQGVRELVASGHRVYVERGAGEGAGFPDEAYEEAGARLVGREEAFGRPQVVLKVARPTLEEVGLMRKNAVLMAFLHLAVAESPLVEAMAQKGLTAIGYELVGEEGRRPVLKAMSEIAGRMAPQLAGRLLEAPQGPGILLSGLVGIPPADVVVLGAGVLGRAAARAFLGAGASVHLLDRALPPLEEAAREAPGAITALVTQDRLERYVAFADVLVGAVAVPGERTPLLLTRGLLARMRPGSVLLDFSIDQGGVSETSRPGVYQEMGVTHFCLPNVPALVPRTASHALTATLLPYLLRIQEDPLALPGLRQGAYLLFGEKGGHLE | 6 |
